Measured values as given in PMC4735289, “Seasonal induction of alternative principal pathway for rose flower scent” (Scientific Reports, 2016).

What was measured:
purified protein = substrate: CC(=O)C(=O)O; test: purified protein; format: biochemical, Rosa hybrid cultivar; settings: 1 mM TPP, 5 mM MgCl2, 0.1 M citrate pH 6.0, 40 °C
[1] = substrate: O=C(O)C(=O)Cc1ccccc1; test: PPA decarboxylation; phenylacetaldehyde extracted and measured by GC-MS; format: biochemical, Rosa hybrid cultivar; settings: 1 mM TPP, 5 mM MgCl2, 0.1 M citrate pH 6.0, 40 °C
Text: PPA decarboxylation; phenylacetaldehyde extracted and measured by GC-MS on […] | the kcat/Km value of […] was higher for PPA than for pyruvic acid (PA)

B1: RyPPDC (Rosa hybrid cultivar) (protein)
chain: MEPSTLIGATPRPTSALLPVVPAAACSGTLGRHLARRLVEIGVHDVFSVPGDFNLTLLDHLIAEPELNLIGCCNELNAGYAADGYARARGVGACVVTFTVGGLSVLNAIAGAYSENLPVICIVGGPNSNDYGTNRILHHTIGLPDFTQELRCFQTVTCHQAVVSHLEDAHELIDTAISTALKESKPVYISISCNLPAIPHPTFGRDPVPFFIAPKVSNQIGLEAAVEATAAFLNKAVKPVLVGGPKLRVAKAQKAFVELADASGYPMAVMPSGKGLVPEHHPHFIGTYWGAVSTSFCGEIVESADAYVFVGPIFNDYSSVGYSLLIKKEKAIIVEPNRVTIGNGPSFGWVFMGDFLTALAKKLKKNSTGMENYCRIFVPPGIPLKAQKDEPLRVNVLFKHIQEIVTPNTAIISETGDSWFNCQKLRLPENCGYEFQMQYGSIGWSVGATLGYAQGAKDKRVIACIGDGSFQVTAQDISTMIRCGQNTIIFLINNGGYTIEVEIHDGPYNVIKNWDYTGLVDAIHNGEGKCWTTKVRTEEDLTEAIAKATGEHKDSLCFIEVFVHKDDTRKELLEWGSRVSAANSRPPNPQ
notes: recombinant, baculovirus-insect cell (HighFive) expression, purified by DEAE, Phenyl HP and Superdex 200; cDNA from rose petals
Purified protein
  Km: 4.70 ± 0.32 mM
  kcat: 0.0215 ± 0.0005 s⁻¹
[1]
  Km: 1.32 ± 0.06 mM
  kcat: 0.0297 ± 0.00033 s⁻¹
